The chains are these.
T1: factor VIIIa A1/A3C1C2 dimer, wild type (human, UniProt P00451 20-391; P00451 1709-2351)
T1 sequence 1: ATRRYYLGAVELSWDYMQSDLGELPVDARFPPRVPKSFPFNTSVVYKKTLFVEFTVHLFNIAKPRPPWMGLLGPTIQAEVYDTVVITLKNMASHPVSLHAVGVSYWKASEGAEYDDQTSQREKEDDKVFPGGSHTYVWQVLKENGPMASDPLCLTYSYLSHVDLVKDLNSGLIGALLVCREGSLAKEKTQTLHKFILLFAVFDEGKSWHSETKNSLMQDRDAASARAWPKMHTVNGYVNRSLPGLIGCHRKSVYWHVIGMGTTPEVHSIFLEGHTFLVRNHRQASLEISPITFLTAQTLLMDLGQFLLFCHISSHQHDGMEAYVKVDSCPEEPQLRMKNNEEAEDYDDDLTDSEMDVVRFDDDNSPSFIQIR
T1 sequence 2: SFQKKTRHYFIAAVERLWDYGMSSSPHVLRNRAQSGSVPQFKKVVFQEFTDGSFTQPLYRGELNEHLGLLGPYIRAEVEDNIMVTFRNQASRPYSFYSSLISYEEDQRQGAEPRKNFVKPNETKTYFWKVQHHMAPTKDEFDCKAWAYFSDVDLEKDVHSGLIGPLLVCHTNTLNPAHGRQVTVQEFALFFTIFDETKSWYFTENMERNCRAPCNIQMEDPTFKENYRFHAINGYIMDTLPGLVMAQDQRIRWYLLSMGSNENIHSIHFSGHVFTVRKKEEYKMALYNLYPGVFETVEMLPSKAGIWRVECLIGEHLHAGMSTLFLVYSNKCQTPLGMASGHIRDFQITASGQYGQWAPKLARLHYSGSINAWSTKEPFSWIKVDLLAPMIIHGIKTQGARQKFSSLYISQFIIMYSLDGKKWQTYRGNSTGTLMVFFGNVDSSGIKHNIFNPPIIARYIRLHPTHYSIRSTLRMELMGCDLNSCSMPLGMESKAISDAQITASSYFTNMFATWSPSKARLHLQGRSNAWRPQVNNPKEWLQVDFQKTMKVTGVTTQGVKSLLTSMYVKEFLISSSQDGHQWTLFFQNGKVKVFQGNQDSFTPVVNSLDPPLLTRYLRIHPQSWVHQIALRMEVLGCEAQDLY

B1: factor VIIIa A2 subunit, S524A (other)
chain: SVAKKHPKTWVHYIAAEEEDWDYAPLVLAPDDRSYKSQYLNNGPQRIGRKYKKVRFMAYTDETFKTREAIQHESGILGPLLYGEVGDTLLIIFKNQASRPYNIYPHGITDVRPLYSRRLPKGVKHLKDFPILPGEIFKYKWTVTVEDGPTKADPRCLTRYYSSFVNMERDLASGLIGPLLICYKESVDQRGNQIMSDKRNVILFSVFDENRSWYLTENIQRFLPNPAGVQLEDPEFQASNIMHSINGYVFDSLQLSVCLHEVAYWYILSIGAQTDFLSVFFSGYTFKHKMVYEDTLTLFPFSGETVFMSMENPGLWILGCHNSDFRNRGMTALLKVSSCDKNTGDYYEDSYEDISAYLLSKNNAIEPR
B2: factor VIIIa A2 subunit, R531A (other)
chain: SVAKKHPKTWVHYIAAEEEDWDYAPLVLAPDDRSYKSQYLNNGPQRIGRKYKKVRFMAYTDETFKTREAIQHESGILGPLLYGEVGDTLLIIFKNQASRPYNIYPHGITDVRPLYSRRLPKGVKHLKDFPILPGEIFKYKWTVTVEDGPTKSDPRCLTAYYSSFVNMERDLASGLIGPLLICYKESVDQRGNQIMSDKRNVILFSVFDENRSWYLTENIQRFLPNPAGVQLEDPEFQASNIMHSINGYVFDSLQLSVCLHEVAYWYILSIGAQTDFLSVFFSGYTFKHKMVYEDTLTLFPFSGETVFMSMENPGLWILGCHNSDFRNRGMTALLKVSSCDKNTGDYYEDSYEDISAYLLSKNNAIEPR
B3: factor VIIIa A2 subunit, N684A (other)
chain: SVAKKHPKTWVHYIAAEEEDWDYAPLVLAPDDRSYKSQYLNNGPQRIGRKYKKVRFMAYTDETFKTREAIQHESGILGPLLYGEVGDTLLIIFKNQASRPYNIYPHGITDVRPLYSRRLPKGVKHLKDFPILPGEIFKYKWTVTVEDGPTKSDPRCLTRYYSSFVNMERDLASGLIGPLLICYKESVDQRGNQIMSDKRNVILFSVFDENRSWYLTENIQRFLPNPAGVQLEDPEFQASNIMHSINGYVFDSLQLSVCLHEVAYWYILSIGAQTDFLSVFFSGYTFKHKMVYEDTLTLFPFSGETVFMSMEAPGLWILGCHNSDFRNRGMTALLKVSSCDKNTGDYYEDSYEDISAYLLSKNNAIEPR
B4: factor VIIIa A2 subunit, S650A (other)
chain: SVAKKHPKTWVHYIAAEEEDWDYAPLVLAPDDRSYKSQYLNNGPQRIGRKYKKVRFMAYTDETFKTREAIQHESGILGPLLYGEVGDTLLIIFKNQASRPYNIYPHGITDVRPLYSRRLPKGVKHLKDFPILPGEIFKYKWTVTVEDGPTKSDPRCLTRYYSSFVNMERDLASGLIGPLLICYKESVDQRGNQIMSDKRNVILFSVFDENRSWYLTENIQRFLPNPAGVQLEDPEFQASNIMHSINGYVFDSLQLSVCLHEVAYWYILSIGAQTDFLAVFFSGYTFKHKMVYEDTLTLFPFSGETVFMSMENPGLWILGCHNSDFRNRGMTALLKVSSCDKNTGDYYEDSYEDISAYLLSKNNAIEPR
B5: factor VIIIa A2 subunit, Y664F (other)
chain: SVAKKHPKTWVHYIAAEEEDWDYAPLVLAPDDRSYKSQYLNNGPQRIGRKYKKVRFMAYTDETFKTREAIQHESGILGPLLYGEVGDTLLIIFKNQASRPYNIYPHGITDVRPLYSRRLPKGVKHLKDFPILPGEIFKYKWTVTVEDGPTKSDPRCLTRYYSSFVNMERDLASGLIGPLLICYKESVDQRGNQIMSDKRNVILFSVFDENRSWYLTENIQRFLPNPAGVQLEDPEFQASNIMHSINGYVFDSLQLSVCLHEVAYWYILSIGAQTDFLSVFFSGYTFKHKMVFEDTLTLFPFSGETVFMSMENPGLWILGCHNSDFRNRGMTALLKVSSCDKNTGDYYEDSYEDISAYLLSKNNAIEPR

This test concerns the target T1, factor VIIIa A1/A3C1C2 dimer, wild type. Briefly: cell-based or functional assay.
On to B1, for which the “Factor VIIIa decay rate relative to wild type, FIXa (+)” value was 40.4 relative to wild type; the “Factor VIIIa decay rate relative to wild type, FIXa (-)” value is 7 relative to wild type; the “Factor VIIIa decay rate, FIXa (+)” value turned out to be 0.455 min⁻¹; the “Factor VIIIa decay rate, FIXa (-)” value was found to be 0.442 min⁻¹.

In the case of B2, the “Factor VIIIa decay rate relative to wild type, FIXa (+)” value is 6.72 relative to wild type and the “Factor VIIIa decay rate, FIXa (+)” value was 0.0758 min⁻¹.

On to B3, for which the “Factor VIIIa decay rate relative to wild type, FIXa (+)” value was 36.3 relative to wild type; the “Factor VIIIa decay rate relative to wild type, FIXa (-)” value was 18.8 relative to wild type; the “Factor VIIIa decay rate, FIXa (+)” value worked out at 0.41 min⁻¹; the “Factor VIIIa decay rate, FIXa (-)” value came out at 1.18 min⁻¹.

With B4, the “Factor VIIIa decay rate relative to wild type, FIXa (+)” value was 2.81 relative to wild type and the “Factor VIIIa decay rate, FIXa (+)” value was found to be 0.0317 min⁻¹.

Regarding B5, the “Factor VIIIa decay rate relative to wild type, FIXa (+)” value was 1.31 relative to wild type and the “Factor VIIIa decay rate, FIXa (+)” value was found to be 0.0148 min⁻¹.
